Data: the supplement of paper PMC12764529
± gives the half width of the 95% confidence interval.

How the values were obtained:
[1] = folding stability dG unfold (combined trypsin and chymotrypsin); higher = more stable
How it was run: (§1)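 K50 was inferred by Bayesian fitting of sequencing counts obtained after protease digestion of designed mini-proteins. Unfolding free energy was derived by comparison with a sequence-predicted unfolded-state K50 and a shared folded-state K50, for each protease or both combined. The mini-proteins were under 80 residues, had no cysteine, were carried in a PA-tagged cDNA display construct, and were kept only if AlphaFold2 dimer inter-PAE exceeded 15.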

[2] = folding stability dG unfold from chymotrypsin proteolysis; higher = more stable
How it was run: as §1

[3] = folding stability dG unfold from trypsin proteolysis; higher = more stable
How it was run: as §1

Sequence | folding stability dG unfold [1] [kcal/mol] | folding stability dG unfold [2] [kcal/mol] | folding stability dG unfold [3] [kcal/mol]
SAMSLTIETDGSLEDVIAALKAFLEANPNVPFIISPPNGEVKVIDLGLADKILVIPDPDGKVRITVINPSAG [r14_807_TrMRF] | 1.75 ± 0.036 | 1.7 ± 0.024 | 1.76 ± 0.023
SAGGSVEVTKTESKGPGGTVTVEALKTVTKFDEKGNPVKEEEVRITRTETYDPNTGKVTTTTTVEGSAGGSA [r2_220_JUSTAS] | 0.487 ± 0.067 | 0.709 ± 0.018 | -0.0891 ± 0.061
SAGGSAGGSAGDWIKFEYTFKWNFFDPDGDLLMNMTVRVTIEIPIPPVPKPVKPSPNDDNSAGGSAGGSAGG [r17_325_TrROS] | 5.34 ± 0.22 | 5.4 ± 0.15 | 3.52 ± 0.13
SAGGSAGGSEWYEIRIPGIKGSADDLVEDIQDWFPAPNMKISIEEVEPMGDGLPGMTIKLRVNSAGGSAGGS [r12_348_TrROS] | 0.381 ± 0.054 | 0.361 ± 0.11 | 0.227 ± 0.033
SAGGSAMDLKIKKKERDPPNGTKKLTVEVPGWEVEINIERNPDGPYKIEIYAPNPAAKNAIKEFIKSAGGSA [r15_42_TrROS] | 0.324 ± 0.2 | 0.488 ± 0.18 | -0.275 ± 0.26
SAGGKKNKPKPKVKVKILSVTANPDPNTPGLLSVSVPVLIESDDEEFALALAKELAKLPNVKVVVLGGSAGG [r13_606_TrMRF] | 1.42 ± 0.048 | 1.42 ± 0.037 | 1.34 ± 0.023
SAMKPFPAKEAIEQILEEMEDMPLPPGQEEVEFQIRLPDDGAPVQISIERNPGKWKIEIYVGNKPIWITSAG [r14_199_TrROS] | 2.05 ± 0.12 | 2.43 ± 0.14 | 1.7 ± 0.082
SAGGSAGGSAGSTALVETREFEDGTVVERVEVTLPNGEVLERTVVLTRDEAGNVVEEEVESAGGSAGGSAGG [r11_709_JUSTAS] | 0.958 ± 0.053 | 1.29 ± 0.021 | 0.224 ± 0.03
SAGGSAMPLEELKKVTITLSFYNENGELVAEMTLEYDEETDVFTMTVKVRYNGKTYTVEMEFKLLPSAGGSA [r15_278_TrROS_Hall] | 5.23 ± 0.32 | 5.29 ± 0.2 | 4.5 ± 0.56
SAGGSAGGSAGMEVILLEVDSEEEAEKLVKELSEKYGYPVKVEKDPENPKLVTLTIEKPKSAGGSAGGSAGG [r11_797_JUSTAS] | 1.36 ± 0.067 | 1.16 ± 0.039 | 1.41 ± 0.066
SAGGSAGGSETVTLTLVVDSPEEAKALIDALKKAGIKEVTLEEKDGKLVLTITMSKEELEKLKSAGGSAGGS [r12_846_TrROS_Hall] | 3.41 ± 0.2 | 3.8 ± 0.13 | 2.31 ± 0.23
SAGMLNIPVDTPEKLLEIVKKLPGPVVVRSTSGTTVTVASLEELKEIAERGVPVELLLPEELPAEERAASAG [r5_677_JUSTAS] | 0.576 ± 0.067 | 0.872 ± 0.041 | 0.0824 ± 0.051
SAGGNGRKKVKIDISIMIPIPPNDMPPEQRMKLAKELAERIARSLARKEGADPDKIDEVKVRFHIFPWSAGG [r13_5_TrROS] | 2.44 ± 0.072 | 2.65 ± 0.067 | 2.03 ± 0.027
SAGGSAGGSAGGLPNIPGFVLLETYSETFNVPLPENRTATITKTLILHPNALLESYSINPSAGGSAGGSAGG [r7_945_TrMRF] | -0.251 ± 0.27 | -0.353 ± 0.23 | -0.198 ± 0.27
SAGGSAGGSAMVVEERRLPDDLLVRTEVEPVEDNELPGPALRVTVTTVDLKTGEETPEVIPESAGGSAGGSA [r18_66_JUSTAS] | -0.0827 ± 0.091 | 0.168 ± 0.03 | -0.713 ± 0.16
SAGGMKKEKVKITIVVPVEDAEKLREALEKLGFKVVEEKENEDGLLTLTVEVDGKKIEIKIVKKEELSAGGS [r16_170_TrROS_Hall] | 1.05 ± 0.28 | 0.81 ± 0.095 | 1.13 ± 0.088
SAGGSAEEAEELARRLAAELQAETGLEVTVEVRYDEETDTVVIRMTVRDRATGEERTLELTLRLPDSAGGSA [r15_464_TrROS_Hall] | 3.51 ± 0.059 | 3.72 ± 0.052 | 3.04 ± 0.063
